Source: patent US20140087995A1 (published 2014)
Numbered stars: 1 amine (or outer) side, 2 acyl side, 3 side chain; on linkers, the order of the positions; unused ones are H or OH. Bridge positions count the residues as written; N and C are the ends. * marks the point of attachment. C20 diacid = O=C(O)CCCCCCCCCCCCCCCCCCC(=O)*; γGlu = O=C(O)[C@H](CCC(=O)[*:2])N[*:1]

T1: human calcitonin receptor (human, UniProt P30988 25-474)
T1 construct: whole, on cells; also called hCTR; hCT
T1 sequence (looked up): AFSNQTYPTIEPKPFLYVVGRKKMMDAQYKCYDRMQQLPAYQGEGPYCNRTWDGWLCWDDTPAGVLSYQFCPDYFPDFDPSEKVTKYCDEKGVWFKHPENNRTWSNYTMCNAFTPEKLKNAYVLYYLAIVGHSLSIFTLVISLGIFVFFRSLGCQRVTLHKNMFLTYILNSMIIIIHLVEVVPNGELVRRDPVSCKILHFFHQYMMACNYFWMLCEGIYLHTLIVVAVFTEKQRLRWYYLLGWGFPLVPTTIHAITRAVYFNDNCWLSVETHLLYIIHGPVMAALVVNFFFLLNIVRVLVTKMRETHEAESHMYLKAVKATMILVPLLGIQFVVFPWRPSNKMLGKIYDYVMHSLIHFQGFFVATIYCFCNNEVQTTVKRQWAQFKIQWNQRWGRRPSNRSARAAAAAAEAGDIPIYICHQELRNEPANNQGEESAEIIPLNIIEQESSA

B1: N^α1-[(4S)-4-carboxy-4-(19-carboxynonadecanoylamino)butanoyl]-[Glu14,Arg17,Pro21,Pro27,Arg35]-h-amylin (peptide)
peptide: {C20 diacid-γGlu}-KCNTATCATQRLAEFLRHSSPNFGAIPSSTNVGSRTY-NH2
modifications: disulfide 2-7
SMILES: CC[C@H](C)[C@H](NC(=O)[C@H](C)NC(=O)CNC(=O)[C@H](Cc1ccccc1)NC(=O)[C@H](CC(N)=O)NC(=O)[C@@H]1CCCN1C(=O)[C@H](CO)NC(=O)[C@H](CO)NC(=O)[C@H](Cc1c[nH]cn1)NC(=O)[C@H](CCCNC(=N)N)NC(=O)[C@H](CC(C)C)NC(=O)[C@H](Cc1ccccc1)NC(=O)[C@H](CCC(=O)O)NC(=O)[C@H](C)NC(=O)[C@H](CC(C)C)NC(=O)[C@H](CCCNC(=N)N)NC(=O)[C@H](CCC(N)=O)NC(=O)[C@@H](NC(=O)[C@H](C)NC(=O)[C@@H]1CSSC[C@H](NC(=O)[C@H](CCCCN)NC(=O)CC[C@H](NC(=O)CCCCCCCCCCCCCCCCCCC(=O)O)C(=O)O)C(=O)N[C@@H](CC(N)=O)C(=O)N[C@@H]([C@@H](C)O)C(=O)N[C@@H](C)C(=O)N[C@@H]([C@@H](C)O)C(=O)N1)[C@@H](C)O)C(=O)N1CCC[C@H]1C(=O)N[C@@H](CO)C(=O)N[C@@H](CO)C(=O)N[C@H](C(=O)N[C@@H](CC(N)=O)C(=O)N[C@H](C(=O)NCC(=O)N[C@@H](CO)C(=O)N[C@@H](CCCNC(=N)N)C(=O)N[C@H](C(=O)N[C@@H](Cc1ccc(O)cc1)C(N)=O)[C@@H](C)O)C(C)C)[C@@H](C)O
notes: also called compound 16
B2: N^α1-[(4S)-4-carboxy-4-(19-carboxynonadecanoylamino)butanoyl]-[Glu14,Arg17,Pro21,Pro27,Pro31]-h-amylin (peptide)
peptide: {C20 diacid-γGlu}-KCNTATCATQRLAEFLRHSSPNFGAIPSSTPVGSNTY-NH2
modifications: disulfide 2-7
SMILES: CC[C@H](C)[C@H](NC(=O)[C@H](C)NC(=O)CNC(=O)[C@H](Cc1ccccc1)NC(=O)[C@H](CC(N)=O)NC(=O)[C@@H]1CCCN1C(=O)[C@H](CO)NC(=O)[C@H](CO)NC(=O)[C@H](Cc1c[nH]cn1)NC(=O)[C@H](CCCNC(=N)N)NC(=O)[C@H](CC(C)C)NC(=O)[C@H](Cc1ccccc1)NC(=O)[C@H](CCC(=O)O)NC(=O)[C@H](C)NC(=O)[C@H](CC(C)C)NC(=O)[C@H](CCCNC(=N)N)NC(=O)[C@H](CCC(N)=O)NC(=O)[C@@H](NC(=O)[C@H](C)NC(=O)[C@@H]1CSSC[C@H](NC(=O)[C@H](CCCCN)NC(=O)CC[C@H](NC(=O)CCCCCCCCCCCCCCCCCCC(=O)O)C(=O)O)C(=O)N[C@@H](CC(N)=O)C(=O)N[C@@H]([C@@H](C)O)C(=O)N[C@@H](C)C(=O)N[C@@H]([C@@H](C)O)C(=O)N1)[C@@H](C)O)C(=O)N1CCC[C@H]1C(=O)N[C@@H](CO)C(=O)N[C@@H](CO)C(=O)N[C@H](C(=O)N1CCC[C@H]1C(=O)N[C@H](C(=O)NCC(=O)N[C@@H](CO)C(=O)N[C@@H](CC(N)=O)C(=O)N[C@H](C(=O)N[C@@H](Cc1ccc(O)cc1)C(N)=O)[C@@H](C)O)C(C)C)[C@@H](C)O
notes: also called compound 31
B3: N^α1-[(4S)-4-carboxy-4-(19-carboxynonadecanoylamino)butanoyl]-[Glu14,Arg17,Pro21,Pro27,Asp35,Pro37]-h-amylin (peptide)
peptide: {C20 diacid-γGlu}-KCNTATCATQRLAEFLRHSSPNFGAIPSSTNVGSDTP-NH2
modifications: disulfide 2-7
SMILES: CC[C@H](C)[C@H](NC(=O)[C@H](C)NC(=O)CNC(=O)[C@H](Cc1ccccc1)NC(=O)[C@H](CC(N)=O)NC(=O)[C@@H]1CCCN1C(=O)[C@H](CO)NC(=O)[C@H](CO)NC(=O)[C@H](Cc1c[nH]cn1)NC(=O)[C@H](CCCNC(=N)N)NC(=O)[C@H](CC(C)C)NC(=O)[C@H](Cc1ccccc1)NC(=O)[C@H](CCC(=O)O)NC(=O)[C@H](C)NC(=O)[C@H](CC(C)C)NC(=O)[C@H](CCCNC(=N)N)NC(=O)[C@H](CCC(N)=O)NC(=O)[C@@H](NC(=O)[C@H](C)NC(=O)[C@@H]1CSSC[C@H](NC(=O)[C@H](CCCCN)NC(=O)CC[C@H](NC(=O)CCCCCCCCCCCCCCCCCCC(=O)O)C(=O)O)C(=O)N[C@@H](CC(N)=O)C(=O)N[C@@H]([C@@H](C)O)C(=O)N[C@@H](C)C(=O)N[C@@H]([C@@H](C)O)C(=O)N1)[C@@H](C)O)C(=O)N1CCC[C@H]1C(=O)N[C@@H](CO)C(=O)N[C@@H](CO)C(=O)N[C@H](C(=O)N[C@@H](CC(N)=O)C(=O)N[C@H](C(=O)NCC(=O)N[C@@H](CO)C(=O)N[C@@H](CC(=O)O)C(=O)N[C@H](C(=O)N1CCC[C@H]1C(N)=O)[C@@H](C)O)C(C)C)[C@@H](C)O
notes: also called compound 11
B4: N^α1-[(4S)-4-carboxy-4-(19-carboxynonadecanoylamino)butanoyl]-[Glu14,Arg17,Pro21,Pro27,His35]-h-amylin (peptide)
peptide: {C20 diacid-γGlu}-KCNTATCATQRLAEFLRHSSPNFGAIPSSTNVGSHTY-NH2
modifications: disulfide 2-7
SMILES: CC[C@H](C)[C@H](NC(=O)[C@H](C)NC(=O)CNC(=O)[C@H](Cc1ccccc1)NC(=O)[C@H](CC(N)=O)NC(=O)[C@@H]1CCCN1C(=O)[C@H](CO)NC(=O)[C@H](CO)NC(=O)[C@H](Cc1c[nH]cn1)NC(=O)[C@H](CCCNC(=N)N)NC(=O)[C@H](CC(C)C)NC(=O)[C@H](Cc1ccccc1)NC(=O)[C@H](CCC(=O)O)NC(=O)[C@H](C)NC(=O)[C@H](CC(C)C)NC(=O)[C@H](CCCNC(=N)N)NC(=O)[C@H](CCC(N)=O)NC(=O)[C@@H](NC(=O)[C@H](C)NC(=O)[C@@H]1CSSC[C@H](NC(=O)[C@H](CCCCN)NC(=O)CC[C@H](NC(=O)CCCCCCCCCCCCCCCCCCC(=O)O)C(=O)O)C(=O)N[C@@H](CC(N)=O)C(=O)N[C@@H]([C@@H](C)O)C(=O)N[C@@H](C)C(=O)N[C@@H]([C@@H](C)O)C(=O)N1)[C@@H](C)O)C(=O)N1CCC[C@H]1C(=O)N[C@@H](CO)C(=O)N[C@@H](CO)C(=O)N[C@H](C(=O)N[C@@H](CC(N)=O)C(=O)N[C@H](C(=O)NCC(=O)N[C@@H](CO)C(=O)N[C@@H](Cc1c[nH]cn1)C(=O)N[C@H](C(=O)N[C@@H](Cc1ccc(O)cc1)C(N)=O)[C@@H](C)O)C(C)C)[C@@H](C)O
notes: also called compound 18
B5: N^α1-[(4S)-4-carboxy-4-(19-carboxynonadecanoylamino)butanoyl]-[Glu14,Arg17,Pro21,Pro27,Pro29]-h-amylin (peptide)
peptide: {C20 diacid-γGlu}-KCNTATCATQRLAEFLRHSSPNFGAIPSPTNVGSNTY-NH2
modifications: disulfide 2-7
SMILES: CC[C@H](C)[C@H](NC(=O)[C@H](C)NC(=O)CNC(=O)[C@H](Cc1ccccc1)NC(=O)[C@H](CC(N)=O)NC(=O)[C@@H]1CCCN1C(=O)[C@H](CO)NC(=O)[C@H](CO)NC(=O)[C@H](Cc1c[nH]cn1)NC(=O)[C@H](CCCNC(=N)N)NC(=O)[C@H](CC(C)C)NC(=O)[C@H](Cc1ccccc1)NC(=O)[C@H](CCC(=O)O)NC(=O)[C@H](C)NC(=O)[C@H](CC(C)C)NC(=O)[C@H](CCCNC(=N)N)NC(=O)[C@H](CCC(N)=O)NC(=O)[C@@H](NC(=O)[C@H](C)NC(=O)[C@@H]1CSSC[C@H](NC(=O)[C@H](CCCCN)NC(=O)CC[C@H](NC(=O)CCCCCCCCCCCCCCCCCCC(=O)O)C(=O)O)C(=O)N[C@@H](CC(N)=O)C(=O)N[C@@H]([C@@H](C)O)C(=O)N[C@@H](C)C(=O)N[C@@H]([C@@H](C)O)C(=O)N1)[C@@H](C)O)C(=O)N1CCC[C@H]1C(=O)N[C@@H](CO)C(=O)N1CCC[C@H]1C(=O)N[C@H](C(=O)N[C@@H](CC(N)=O)C(=O)N[C@H](C(=O)NCC(=O)N[C@@H](CO)C(=O)N[C@@H](CC(N)=O)C(=O)N[C@H](C(=O)N[C@@H](Cc1ccc(O)cc1)C(N)=O)[C@@H](C)O)C(C)C)[C@@H](C)O
notes: also called compound 37

target: T1, human calcitonin receptor; test: ratio of IC50 at hCTR to IC50 at the human amylin receptor (reference)
Protocol: The resulting pellet was resuspended, homogenized and centrifuged (20.000 rpm, 15 min) in a buffer containing 20 mM Na-HEPES and 0.1 mM EDTA (pH 7.4, buffer 2). The resulting pellet was resuspended in buffer 2 and protein concentration was measured (BCA protein Assay, Pierce). The homogenate was kept cold during the whole procedure. The membranes were kept at −80° C. until use. The assay was performed in a 384 well Optiplate (PerkinElmer) in a total volume of 40 ul. Membranes were mixed with SPA beads. Final concentration of membranes 35 ng/μL final and SPA beads was 0.05 mg/well. Test-compounds were dissolved in DMSO and further diluted in assay buffer (50 mM Hepes, pH 7.4, 1 mM CaCl2, 5 mM MgCl₂, 0.1% OA and 0.02% Tween20). […] The final mixture was incubated with shaking at 400 rpm for 120 min at 25° C. prior to centrifugation (1500 rpm, 10 min). Samples were analyzed on TopCounter™ (Packard). The IC₅₀ was calculated using (one site binding competition analysis) GraphPad Prism5 as a measure of receptor affinity.
Membranes were prepared in the following way; the cells were rinsed with PBS and incubated with Versene for approximately 5 min before harvesting. The cells were flushed with PBS and the cell-suspension was centrifuged for 5 min at 1000 rpm. Cells were homogenized (Ultrathurrax) in a buffer containing 20 mM Na-HEPES and 10 mM EDTA (pH 7.4) and centrifuged at 20.000 rpm for 15 min. The resulting pellet was resuspended, homogenized and centrifuged (20.000 rpm, 15 min) in a buffer containing 20 mM Na-HEPES and 0.1 mM EDTA (pH 7.4, buffer 2). The resulting pellet was resuspended in buffer 2 and protein concentration was measured (BCA protein Assay, Pierce). The homogenate was kept cold during the whole procedure. The membranes were kept at −80° C. until use. Assay was performed in a 384 well Optiplate (PerkinElmer) in a total volume of 40 ul. Membranes were mixed with SPA beads.

Ratio hCT/hAmylin binding | Binder
19.1 | B1
16 | B2
1 | B3
9.2 | B4
2.3 | B5

target: T1, human calcitonin receptor; test: SPA competition binding, membranes with human calcitonin receptor, displacement of 125I-calcitonin (Assay VII)
Protocol: Membranes were prepared in the following way; the cells were rinsed with PBS and incubated with Versene for approximately 5 min before harvesting. The cells were flushed with PBS and the cell-suspension was centrifuged for 5 min at 1000 rpm. Cells were homogenized (Ultrathurrax) in a buffer containing 20 mM Na-HEPES and 10 mM EDTA (pH 7.4) and centrifuged at 20.000 rpm for 15 min. The resulting pellet was resuspended, homogenized and centrifuged (20.000 rpm, 15 min) in a buffer containing 20 mM Na-HEPES and 0.1 mM EDTA (pH 7.4, buffer 2). The resulting pellet was resuspended in buffer 2 and protein concentration was measured (BCA protein Assay, Pierce). The homogenate was kept cold during the whole procedure. The membranes were kept at −80° C. until use. Assay was performed in a 384 well Optiplate (PerkinElmer) in a total volume of 40 ul. Membranes were mixed with SPA beads. Final concentration of membranes 35 ng/μL final and Final concentration of SPA beads was 0.05 mg/well. Test-compounds were dissolved in DMSO and further diluted in assay buffer (50 mM Hepes, pH 7.4, 1 mM CaCl2, 5 mM MgCl₂, 0.1% OA and 0.02% Tween20). […] The final mixture was incubated for 120 min with shaking at 400 rpm at 25° C. prior to centrifugation (1500 rpm, 10 min). Samples were analyzed on TopCounter™ (Packard). The […] was calculated using (one site binding competition analysis) GraphPad Prism5 as a measure of receptor affinity.

IC50 [nM] | Binder
17.1 | B1
3.26 | B2
0.101 | B3
5.09 | B4
2.18 | B5
